Percentage of total lysine in the precipitate (amino acid analysis) after 2 hrs data for 1 substance are collected here from patent publication US6277622.

In this experiment the target is recombinant tropoelastin (human) (UniProt P15502).

Consider “recombinant human lysyl oxidase derived from the plasmid p3dL^m2 (enzyme)”, for which the percentage of total lysine in the precipitate (amino acid analysis) after 2 hrs at 37 C; formation of insoluble protein was 2.5 % lysine.
